B1: TCN-528 (5087_P17) (antibody, V domains shown)
VH: QVQLVQSGSEVKKPGASVKVSCKASGYTFTNYDINWIRQAPGQGLEWMGWINPNSGTTGSAQRFQGRVTITVDTSITTVYMELSSLRSDDTAIYYCARGRELLRLQHFLTDSQSERRDCFDPWGQGTLVTVSS
VL: DIQMTQSPSSLSASVGDRVTITCRANQDIGIYLNWYQQNPGKVPKLLLHGASSLQGGVPSRFSASGSGTDFTLTIHSLQPEDLATYYCQQSRRLPYTFGQGTRVELK
B2: TCN-544 (5082_A19) (antibody, V domains shown)
VH: QVQLQESGPGLVKPSETLSLTCTVSRGSIGHYFWSWIRQPPGKGLEWIGYISYSGSTKYNPSLRSRVTISVDTSKNQFSLNLNSVTATDTALYYCAREDYDILTGAGPGMEVWGQGTTVTVSS
VL: QSMLTQPPSASGTPGQRVTISCSGSSSNIGSNTVNWFKHLPGTAPKLLIYRNDLRPSGVPDRFSGSKSGTSASLAISGLQSEDEADYYCATWDDSLNGFYVFGTGTKVTVL
B3: TCN-546 (5089_L08) (antibody, V domains shown)
VH: QVQLQQWGAGLLKPSETLSLTCGVYGGSLSDYYWSWIRQPPGKGLEWIGEINHSGGTNYNPSLKRRVTISVDTSKKQFSLKMNSVTAADTAVYYCARGTDPDTEVYCRAGNCAAFDFWGQGTLVTVSS
VL: EIVLTQSPGTLSLSPGERATLSCRASHFVIGRAVAWYQQKPGQAPRLLIYGASSRATGIPDRFSGSGSGTDFTLTISRLETEDFAVFYCQHYGSSPRYAFGQGTKLEIK
B4: TCN-535 (5246_P19) (antibody, V domains shown)
VH: QVQLVQSGSEVKKPGTSVKVSCTASGSVFTNYGISWVRQAPGQGLEWMGGIIPLFGAAKYAQKFQGRVTITADESTKTVYMELSRLTSKDTAIYFCAKAPRVYEYYFDQWGQGTPVTVSS
VL: EIVLTQSPGTLSLSPGERATLSCRASQSVSSSQLAWYQQKPGQAPRLIIYGASTRATGIPDRFSGSGSGTDFTLTIGRLEPEDFAVFFCQQYSTSPPTFGQGTKVDFK
B5: TCN-527 (5086_C06) (antibody, V domains shown)
VH: QVQLQESGPGLVKPSETLSLNCAVSGGSISNYYWSWIRQPPGKGLEWIGYISYNGRPKYNPSLTSRVTISVDTSKDQFSLELRSVTAADTALYYCARETRFGELLSPYDAFEIWGQGTMVTVSS
VL: DIQMTQSPSSLSASVGDRVTMTCRASQNIRSYLNWYQQRPGTAPKLLIYAASTLHSGVPSRFSGGGSGTDFTLTINNLQPEDFASYYCQQSYDNPQTFGQGTKVEIK
B6: TCN-532 (5262_H18) (antibody, V domains shown)
VH: QVQLQESGPGLVKPSETLSLTCTVSGGSVSSETYYWSWIRQPPGKGLEWIGYIYYIGNTDYRPSLKSRVTISLDTSKNQFSLKLSSVTAADTAVYYCARGAYYDSSGYPAFYIWGQGTMVTVSS
VL: QSVLTQPPSVSGAPGQRVTISCTGSSSNIGSDYDVHWYKQLPGTAPKLLIFGNSNRPSGVPDRFSGSKSGTSASLAITGLQAEDEADYYCQSYDSSLSGFHVFGSGTKVTVL
B7: TCN-530 (5248_H10a) (antibody, V domains shown)
VH: QVQLVQSGAEVRKPGSSVKVSCKASGGPFMSYAIGWVRQAPGQGLEWMGGINPVFGRPHYAQKFQGRVTIATDDSTKTSYMELSSLTSEDTGMYYCASRYSRSSPGTFESWGQGTLVTVSS
VL: EIVMTQFPATLSVSPGERVTLSCRASQSVSNNLAWYQQKPGQPPRLLIYDASTRATGVPAKFSGTGSGTEFTLSISSLQSEDFAVYYCQQYHNWPPSYSFGLGTKLEIK
B8: TCN-521 (3280_D18) (antibody, V domains shown)
VH: EVQLVQSGGGLVQPGGSLRLACVVSGFTVTSNYITWVRQAPGKGLEWVSVIYSHGRAYYSASVNGRFTISRHTSKNTVYLEMNSLRPEDTAVYYCAGGGLVGGYDEYFFDYWGQGTLATVSS
VL: ETVLTQSPGTLSLTPGERATLSCRVGQSVSGSHLAWYQQKPGQAPRLLIYGASSRATGIPDRFGGSVSGTDFTLTISRLEPEDSAVYYCQQYGDSRYTFGQGTKLEIK
B9: TCN-526 (5084_C17) (antibody, V domains shown)
VH: EVLMVESGGGLVQPGGSVRLSCVASGFSFSSHWMTWVRQAPGKGLEWVANIEDDGGDKYYVDSVKGRFIISRDNAKNSVYLQMNSLRAEDTAVYFCARGSGSSDRSDYDPHYYYYLDVWGKGATVTVSS
VL: DIQLTQSPSSLSASVGDRVTITCRASQSISRYLNWYQQKPGKAPKLLLFAASTLLDGVPSRFSGSGSGTDFTLTISSLQPEDFATYYCQRNHSPSWTFGQGTRVEIK
B10: TCN-539 (5056_A08) (antibody, V domains shown)
VH: QVQLVESGGGVVQPGRSLRLSCAASEITFITYAMHWVRQAPGKGLEWVALISDDGSNKFYADSVKGRFTISRDNSKNTLYLQMNSLRAEDTAAYYCAREGVYFDSGTYRGYFDYWGQETLVTVSS
VL: EIVLTQSPATLSLSPGERATLSCRASQSVSSYLAWYQQKPGQAPRLLIYDASNRATGIPARFSGSGSGTDFTLTISSLEPEDFAVYYCQQRSHWPPITFGQGTRLEIK
B11: TCN-536 (5095_N01) (antibody, V domains shown)
VH: QVQLQQWGAGLLKPSETLSLTCAVYGGSFSVSGYYWSWIRQPPGRGLEWIGEISHGGSTNYNPSLKSRVTISVDTTKNQFSLRLSSVTAADTAVYYCARGTDPDTEVYCRVGNCAAFDYWGQGSLVTVSS
VL: EIILAQSPGTLSLSPGERATLSCRASQFVSTRSLAWYQQRPGQAPRLLIYGASSRATGIPDRFSGSGSGTDFTLTISRLEPEDFAVYYCQHYGYSPRYAFGQGSKVEIK
B12: TCN-543 (5081_G23) (antibody, V domains shown)
VH: QVHLVQSGAEVRKPGDSVKVSCKTSGYTFSTYPVAWVRQVPGQGLEWMGWISTYNGNTNFAQNFQGRVTLTTDTTTNTAYMEVRSLKFDDTAVYYCARVEGSYRDFWNNQNRFDPWGQGTLVTVSS
VL: SYVLTQPPSVSVAPGQTARISCGGSNIGGKSVHWYQQKPGQAPVLVVYDDSGRPSGIPERFSGSNSGDTATLTISRVEAGDEADYFCQVWDNFGGVFGTGTKVTVL
B13: TCN-563 (5237_B21) (antibody, V domains shown)
VH: QVQLAQSGAEVKRPGSSVKVSCTASGGIFRKNAISWVRQAPGQGLEWMGGIIAVFNTANYAQKFQGRVKITADESGNTAYMELSSLRSDDTAVYYCASHPKYFYGSGSYPDFWGQGTLVTVSS
VL: QSALTQPRSVSGSPGQSVTISCTGSSSDVGASNSVSWYQQHPGKAPKLVIYDVTERPSGVPHRFSGSKSGNTASLTVSGLQPEDEADYFCCAYGGKYLVVFGGGTKVTVL
B14: TCN-534 (5249_B02) (antibody, V domains shown)
VH: QVQLVQSGAEVKKPGSSVKVSCRESGGTFNGYTITWVRQAPGQGLEWMGGIIPMMGTVNYAQKLQGRVTITTDYFTKTAYMDLNNLRSEDTAMYYCVKIRYTGQQLLWGQGTLVTVSS
VL: DIQMTQSPSTLSASIGDRVTITCRASQSIASWLAWYQQKPGKAPKLLIYEAVNLESGVPSRFSGSGSGTDFTLTISSLQPDDFATYFCQHYGTISQTFGGGTKVEIK
B15: TCN-542 (5079_A16) (antibody, V domains shown)
VH: QVQLQESGPGLVKPSQTLSLTCTVSGGSISSGNYYWNWVRQHPGKGLEWIGYIYYRGSTFYNPSLKSRVTISIDTSKNQFSLRLSSVTAADTAVYYCAKDTRSSLDNYQYGMDVWGQGTTVTVSS
VL: QTVVTQEPSLTVSPGGTVTLTCASSTGAVTSSYFPNWFQQKPGQAPRPLIYSTTIRHSWTPARFSGSLLGGKAALTLSGVQPEDEADYYCLLYSGGDPVAFGGGTKLTVL
B16: TCN-547 (5092_F11) (antibody, V domains shown)
VH: QVQLQESGPGLVKPSQTLSLTCTVSGDSISSVDHYWSWIRQHPVKGLEWIGFMYYSASTYYNPSLKSRVTISTDTSKNQFSLRLSSVTAADTAVYYCARGTCAGDCSLHYYYYGLDVWGQGRTVTVSS
VL: DIQMTQSPSSLSASVGDRVTITCRASQSISSYLNWYQHKPGKAPKVLMYAVSILQSGVPSRFSGSGSGADFTLTISSLQPEDFATYYCQQSYSSPLTFGGGTKVEIK
B17: TCN-531 (5091_H13) (antibody, V domains shown)
VH: EVQLVESGGDLVQPGRSLKLSCTGSGFTFGDYGVTWVRQAPGKGLEWVGFIRTRPWGGTADTAASVKGRFTISRDDSKSLAYLQMNSLKTEDTAVYYCCRDAPPNVEVASMTNWYFDLWGRGTLVTVSS
VL: DIQLTQSPSSLSASVGDRVTITCRASQGILNCLAWYQQKPGKVPNLLMYAASTLQSGVPSRFSGSGFGTDFTLTISSLQPEDVATYYCQTYGGVSTFGGGTKVEIR
B18: TCN-533 (5256_A17) (antibody, V domains shown)
VH: QVQLVQSGADVKKPGSSVTVSCKASGGSFSNYGINWVRQAPGQGLEWMGGIIPLINAPNYAPKFQGRVTITADMFSNIVSLQLTSLRTDDTAVYYCARRKMTTAIDYWGQGTLVTVSS
VL: QPVLSQPPSASASLGASVTLTCTLSSGFDNYQVAWYQQRPGKGPRFVMRVGNGGNVASKGDGIPDRFSVSGSGLNRYLTIKNIQEDDESDYYCGADHGSGNNFVSPYVFGGGTKLTVL
B19: TCN-545 (5082_I15) (antibody, V domains shown)
VH: QVQLQQWGAGLLKPSETLSLSCAVFGGSFSDYYWTWIRQPPGKGLEWIGEIKHSGRTNYNPSLESRVTISVDTSKNQFSLKLSSVTAADTAIYYCARGTDPDTEGYCRSGSCSAFDFWGQGTLVTVSS
VL: EIVLTQSPGTLSLSPGERATLSCRASHFVNYRSLAWYQQTPGQVPRLLIYGASTRATGIPDRFSGSGSGTDFTLTISRLEPEDFAVYFCQQYGGSPRYTFGQGTRLEIK
B20: TCN-523 (5248_A17) (antibody, V domains shown)
VH: QVQLVQSGAEVKKPGSSVKVSCKASGGSFSNYAFSWVRQAPGQGLEWMGGTIPLLGTTNYAQKFQGRVTISADQFTSTAYMELGSLRSEDTAVYYCTRRKMTTAFDSWGQGTLVTVSS
VL: QPVLTQPPSASASLGASVTLTCTLSSAYSNYKVDWYQQRPGKGPRFVMRVGTGGIVGSKGDGIPDRFSVLGSGLNRYLTIKNIQEEDESDYHCGADHGSGSNFVSPYVFGGGTKLTVL
B21: TCN-540 (5060_F05) (antibody, V domains shown)
VH: QVQLVQSGGGVVQPGRSLRLSCAASGFTFSSYAMHWVRQAPGKGLEWVAIISYDGNDQYYTDSVKGRFTISRDSSKVYLQMHRLRPEDTAVYYCAKEFETSGYFHGSFDYWGQGILVTVSS
VL: QSALTQPASVSGSPGQSITISCTGTSSDVGGYNYVSWYQQHPGKAPKLLIYEVTNWPSGVSNRFSGSKSGNTASLTISGLQAEDEADYYCSSYAGSSTWVFGGGTRVTVL

The target of the test is Hemagglutinin of influenza A/Japan/305/57 (H2N2), on inactivated whole virions (Influenza A virus A/Japan/305/1957 …, UniProt P03451 16-562). In words: ELISA, B cell culture supernatant on inactivated whole virions.
In turn, B1 displayed an OD450 of 2.82 OD450.

B2 yielded an OD450 of 0.07 OD450.

With B3, the OD450 amounted to 0.06 OD450.

Take B4: the OD450 worked out at 1.46 OD450.

B5 displayed an OD450 of 1.48 OD450.

For B6, the OD450 came out at 0.07 OD450.

The molecule B7 displayed an OD450 of 1.73 OD450.

For the molecule B8, the OD450 is 3.1 OD450.

The molecule B9 gave an OD450 of 0.07 OD450.

With B10, the OD450 is 0.06 OD450.

Molecule B11 registered an OD450 of 0.08 OD450.

For B12, the OD450 is 3.62 OD450.

With B13, the OD450 was 1.23 OD450.

In turn, B14 gave an OD450 of 2.56 OD450.

B15 registered an OD450 of 0.08 OD450.

B16: the OD450 was 0.07 OD450.

B17: the OD450 was determined as 0.67 OD450.

B18 yielded an OD450 of 1.1 OD450.

Molecule B19 came in with an OD450 of 0.06 OD450.

The molecule B20 came in with an OD450 of 1.62 OD450.

As for B21, the OD450 was 3.62 OD450.
